From PMC12123718 (Respiratory Research, 2025)

Molecular target: recombinant human PKM2 (rhPKM2) (human, UniProt P14618 1-531)
Test: SPR

recombinant human PKM2 (rhPKM2), sequence (P14618 whole entry): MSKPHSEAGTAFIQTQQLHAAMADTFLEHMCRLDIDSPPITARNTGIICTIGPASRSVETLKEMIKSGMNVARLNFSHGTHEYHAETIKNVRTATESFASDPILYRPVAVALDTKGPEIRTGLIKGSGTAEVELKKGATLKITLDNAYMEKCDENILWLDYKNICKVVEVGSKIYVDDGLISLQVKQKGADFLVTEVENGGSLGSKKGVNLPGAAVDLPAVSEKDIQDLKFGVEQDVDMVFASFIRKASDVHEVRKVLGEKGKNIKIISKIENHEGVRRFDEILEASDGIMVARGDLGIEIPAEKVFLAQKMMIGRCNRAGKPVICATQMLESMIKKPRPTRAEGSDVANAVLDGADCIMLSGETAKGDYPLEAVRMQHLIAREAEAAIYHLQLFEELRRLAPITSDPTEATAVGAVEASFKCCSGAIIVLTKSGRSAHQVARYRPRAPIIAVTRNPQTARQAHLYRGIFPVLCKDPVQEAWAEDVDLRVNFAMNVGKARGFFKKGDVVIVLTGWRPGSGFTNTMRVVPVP

Kd: 50.6 nM
B1: recombinant hPFN2 (rhPFN2) (natural protein, human, UniProt P35080 1-140, looked up)
chain: MAGWQSYVDNLMCDGCCQEAAIVGYCDAKYVWAATAGGVFQSITPIEIDMIVGKDREGFFTNGLTLGAKKCSVIRDSLYVDGDCTMDIRTKSQGGEPTYNVAVGRAGRVLVFVMGKEGVHGGGLNKKAYSMAKYLRDSGF
